Results: article PMC8605023

Tests used:
[1] = target: G3BP1 NTF2 domain (human) (UniProt Q13283)
[2] = target: G3BP2 NTF2 domain (human) (UniProt Q9UN86)
[3] = target: USP7 (human) (UniProt Q93009)
[4] = target: MAP1LC3C ATG8 domain (human) (UniProt Q9BXW4)
MAP1LC3C ATG8 domain (human), sequence (Q9BXW4 1-126): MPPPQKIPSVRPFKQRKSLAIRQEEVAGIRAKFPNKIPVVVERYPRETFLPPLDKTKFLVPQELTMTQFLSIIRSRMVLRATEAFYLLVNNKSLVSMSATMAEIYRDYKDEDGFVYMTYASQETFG

USP7 (human), sequence (Q93009 whole entry, the tested form may be a part): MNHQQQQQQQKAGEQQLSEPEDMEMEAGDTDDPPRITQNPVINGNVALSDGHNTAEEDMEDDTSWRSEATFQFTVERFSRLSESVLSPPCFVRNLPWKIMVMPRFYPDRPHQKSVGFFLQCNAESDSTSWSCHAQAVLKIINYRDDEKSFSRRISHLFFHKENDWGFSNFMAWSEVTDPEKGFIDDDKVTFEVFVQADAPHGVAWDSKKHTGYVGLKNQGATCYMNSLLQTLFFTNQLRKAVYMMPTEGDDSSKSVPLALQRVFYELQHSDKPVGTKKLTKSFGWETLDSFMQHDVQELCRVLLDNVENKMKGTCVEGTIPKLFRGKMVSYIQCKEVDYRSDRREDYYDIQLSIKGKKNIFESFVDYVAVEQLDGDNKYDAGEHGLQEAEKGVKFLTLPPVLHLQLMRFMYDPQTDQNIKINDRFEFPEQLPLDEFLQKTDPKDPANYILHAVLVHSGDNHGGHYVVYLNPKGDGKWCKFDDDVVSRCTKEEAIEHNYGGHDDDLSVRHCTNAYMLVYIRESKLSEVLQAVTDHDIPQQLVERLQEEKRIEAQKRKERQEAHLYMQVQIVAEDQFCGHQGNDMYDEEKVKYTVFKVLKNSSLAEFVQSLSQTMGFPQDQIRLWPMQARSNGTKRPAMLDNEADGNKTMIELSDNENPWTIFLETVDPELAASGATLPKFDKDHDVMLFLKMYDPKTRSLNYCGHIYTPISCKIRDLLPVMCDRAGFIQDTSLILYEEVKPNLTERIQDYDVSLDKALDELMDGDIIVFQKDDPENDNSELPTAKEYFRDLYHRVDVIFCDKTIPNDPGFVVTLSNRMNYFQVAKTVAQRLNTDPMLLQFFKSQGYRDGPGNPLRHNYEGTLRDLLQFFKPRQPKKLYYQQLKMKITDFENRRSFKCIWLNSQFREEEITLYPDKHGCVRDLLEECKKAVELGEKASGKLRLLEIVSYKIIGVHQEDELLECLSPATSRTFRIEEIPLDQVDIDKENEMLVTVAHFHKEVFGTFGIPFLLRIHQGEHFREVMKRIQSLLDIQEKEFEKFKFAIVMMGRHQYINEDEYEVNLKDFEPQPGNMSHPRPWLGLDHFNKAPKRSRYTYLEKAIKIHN
G3BP1 NTF2 domain (human), sequence (Q13283 11-133): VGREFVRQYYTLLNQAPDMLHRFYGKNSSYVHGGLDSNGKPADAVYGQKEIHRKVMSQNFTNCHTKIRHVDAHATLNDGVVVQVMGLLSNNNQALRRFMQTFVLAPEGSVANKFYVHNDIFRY
G3BP2 NTF2 domain (human), sequence (Q9UN86 11-133): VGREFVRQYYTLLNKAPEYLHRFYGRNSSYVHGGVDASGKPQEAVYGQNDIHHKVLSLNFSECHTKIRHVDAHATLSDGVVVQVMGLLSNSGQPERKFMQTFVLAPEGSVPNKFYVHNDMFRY

| Substance | IC50 [1] [µM] | IC50 [2] [µM] | IC50 [3] [µM] | Ki [3] [µM] | IC50 [4] [µM] | Ki [4] [µM] |
| --- | --- | --- | --- | --- | --- | --- |
| N peptide 12-26 (Sars-CoV2) | 17 | 10 |  |  |  |  |
| N peptide 405-419 (Sars-CoV2) |  |  | 1050 | 150 |  |  |
| NSP3 peptide 2019-2034 (Sars-CoV2) |  |  | 270 | 37 | 1530 | 210 |
